Assay results as given in patent US7732133B2, “Screening methods for biologically active ligands” (Chugai Seiyaku Kabushiki Kaisha, priority 2000, dated 2010).

What was measured:
[1] = Titer of human EPO and G-CSF prepared from recombinant CHO cells
[2] = system: mixed culture of cell lines GFG, EPG, TPG and parental Ba/F3; assay: Cytokine responses in mixed and individual cell cultures (Example 2); assay type: cell-based, mouse; settings: mixed culture of four cell lines (each 4×10^3 cells/well), similar in individual cultures, 72 hours, WST-8; listed as hEPO
Protocol: Mixed culture of the cell lines GFG, EPG, and TPG, which express human G-CSF, EPO, and TPO chimeric receptors, respectively, and their parental cell line Ba/F3 was conducted and their response to various cytokines was examined.
The cells were washed twice with RPMI1640 media containing 2% fetal bovine serum, and then were suspended in RPMI1640 containing 10% fetal bovine serum. The four cell lines were mixed by adjusting each of the cell lines to 4×10^4 cells/mL (16×10^4 cells/mL in total) for the mixed culture, and, for individual cultures, cells were prepared at 4×10^4 cells/mL. 100 μL each of the cells were independently seeded on a 96-well microtiter plate (flat bottom, Falcon). After adding 100 μL/well each of appropriately diluted cytokines, the cultures were cultured for 72 hours in a CO2 incubator (5% CO2 concentration). After the culture, 10 μL/well WST-8 reagent (Cell Count Reagent SF; Nacalai Tesque) was added, and pre-reaction absorbance at a measurement wavelength of 450 nm and a control wavelength of 655 nm was measured using a microplate reader (Model 3550, Bio Rad). The plate was incubated for two hours in a CO2 incubator (CO2 concentration, 5%), and post-reaction absorbance was measured as above. Data were graphed out taking the cytokine concentrations on the horizontal axis and the amount of changes in absorbance after 2-hour incubation on the vertical axis (FIGS. 18, 19, and 20).

[3] = target: T1, chimeric LIF receptor (human LIF receptor and human gp130 / mouse G-CSF receptor) in Ba/F3 cell line LIG (Homo sapiens, UniProt P40189+P42702); assay: Growth response of chimeric LIF receptor-expressing Ba/F3 cell line LIG (WST-8); assay type: cell-based; settings: 72 hours culture, WST-8 absorbance
T1 construct: from the 1st to the 833rd amino acid residues; expressed in transfected cells; host or cells: mouse Ba/F3 cells co-transfected with pCV-cLIFR and pCV-cgp130, clone LIG#47 = LIG
T1 sequence (P42702 45-833): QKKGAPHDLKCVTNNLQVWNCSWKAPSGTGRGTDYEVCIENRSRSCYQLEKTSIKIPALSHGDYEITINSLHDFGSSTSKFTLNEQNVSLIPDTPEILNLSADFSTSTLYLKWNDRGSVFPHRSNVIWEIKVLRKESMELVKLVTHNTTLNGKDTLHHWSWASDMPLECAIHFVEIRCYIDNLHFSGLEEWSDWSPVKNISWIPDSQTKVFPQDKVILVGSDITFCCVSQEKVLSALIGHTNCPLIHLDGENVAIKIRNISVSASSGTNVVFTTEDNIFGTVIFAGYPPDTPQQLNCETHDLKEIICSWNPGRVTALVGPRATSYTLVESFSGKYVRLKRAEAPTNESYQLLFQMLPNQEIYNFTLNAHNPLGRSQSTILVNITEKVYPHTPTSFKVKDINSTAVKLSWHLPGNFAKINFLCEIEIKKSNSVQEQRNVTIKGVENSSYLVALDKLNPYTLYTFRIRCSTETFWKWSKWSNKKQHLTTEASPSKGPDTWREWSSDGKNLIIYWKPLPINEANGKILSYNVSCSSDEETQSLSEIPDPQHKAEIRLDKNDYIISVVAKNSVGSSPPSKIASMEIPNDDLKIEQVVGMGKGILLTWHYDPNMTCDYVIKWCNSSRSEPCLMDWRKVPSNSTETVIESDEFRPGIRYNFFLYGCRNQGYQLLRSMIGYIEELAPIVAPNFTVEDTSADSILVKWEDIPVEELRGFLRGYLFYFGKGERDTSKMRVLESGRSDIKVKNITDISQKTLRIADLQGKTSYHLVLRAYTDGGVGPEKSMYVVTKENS
T1 sequence (P40189 23-619): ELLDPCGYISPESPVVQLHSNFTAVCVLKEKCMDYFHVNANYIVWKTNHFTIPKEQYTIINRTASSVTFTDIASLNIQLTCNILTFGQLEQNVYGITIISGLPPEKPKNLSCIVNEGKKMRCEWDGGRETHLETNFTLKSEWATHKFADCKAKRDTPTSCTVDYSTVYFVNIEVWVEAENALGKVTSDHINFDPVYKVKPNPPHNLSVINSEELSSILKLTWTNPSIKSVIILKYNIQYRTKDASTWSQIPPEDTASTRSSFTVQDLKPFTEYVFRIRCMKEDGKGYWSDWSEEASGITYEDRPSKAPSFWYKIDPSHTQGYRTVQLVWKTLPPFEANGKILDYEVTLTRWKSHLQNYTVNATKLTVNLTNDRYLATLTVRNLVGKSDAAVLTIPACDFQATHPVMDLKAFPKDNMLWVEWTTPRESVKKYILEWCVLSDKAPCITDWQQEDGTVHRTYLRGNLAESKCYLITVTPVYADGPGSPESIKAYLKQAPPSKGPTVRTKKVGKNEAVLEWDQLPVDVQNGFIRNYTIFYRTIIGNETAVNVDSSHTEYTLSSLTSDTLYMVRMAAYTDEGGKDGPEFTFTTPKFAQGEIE
T1 sequence (P40223 627-837 partner limits assumed): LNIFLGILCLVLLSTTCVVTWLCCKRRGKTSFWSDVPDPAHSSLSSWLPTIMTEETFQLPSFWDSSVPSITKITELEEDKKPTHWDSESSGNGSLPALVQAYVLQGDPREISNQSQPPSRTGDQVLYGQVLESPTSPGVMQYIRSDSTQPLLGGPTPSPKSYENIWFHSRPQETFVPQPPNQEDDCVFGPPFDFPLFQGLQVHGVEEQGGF
Description: Chimeric receptor DNAs were constructed by linking cDNA fragments encoding human LIF receptor (from the 1st to the 833rd amino acid residues; Gearing, D P. et al. […] EMBO J., 10, 2839-2848) and human gp130 (from the 1st to the 619th amino acid residues; Hibi, M. et al. (1990) Cell, 63, 1149-1157) with the transmembrane and intracellular domains (from the 602nd to the 813th amino acid residues; Fukunaga, R. et al. (1990) Cell 61, 341-350) of mouse G-CSF receptor, respectively. These constructs were inserted downstream of the HEF1α promoter of the mammalian expression vector pCV to construct chimeric receptors expression vectors, pCV-cLIFR and pCV-cgp130, respectively. pCV-cLIFR and pCV-cgp130 were linearized with Pvu I (Takara Shuzo), respectively, extracted with phenol and chloroform, and purified by ethanol precipitation. […]
(§1) The cells were washed twice with Media A, and were suspended in Media A to give a cell density of 5×10^4 cells/mL. […] After the culture, 10 μL/well WST-8 reagent (Cell Count Reagent SF; Nacalai Tesque) was added, and pre-reaction absorbance at a measurement wavelength of 450 nm and a control wavelength of 655 nm was measured using microplate reader (Model 3550, Bio Rad). The plate was incubated for two hours in a CO2 incubator (CO2 concentration, 5%), and post-reaction absorbance was measured as above. […]

[4] = target: T2, chimeric leptin receptor (human leptin receptor extracellular domain / mouse G-CSF receptor) in Ba/F3 cell line LPG (Homo sapiens, UniProt P48357); assay: Growth response of chimeric leptin receptor-expressing Ba/F3 cell line LPG (WST-8); assay type: cell-based; settings: 72 hours culture, WST-8 absorbance
T2 construct: from the 1st to the 839th amino acid residues; expressed in transfected cells; host or cells: mouse Ba/F3 cells, clone LPG#51 = LPG
T2 sequence (P48357 22-839): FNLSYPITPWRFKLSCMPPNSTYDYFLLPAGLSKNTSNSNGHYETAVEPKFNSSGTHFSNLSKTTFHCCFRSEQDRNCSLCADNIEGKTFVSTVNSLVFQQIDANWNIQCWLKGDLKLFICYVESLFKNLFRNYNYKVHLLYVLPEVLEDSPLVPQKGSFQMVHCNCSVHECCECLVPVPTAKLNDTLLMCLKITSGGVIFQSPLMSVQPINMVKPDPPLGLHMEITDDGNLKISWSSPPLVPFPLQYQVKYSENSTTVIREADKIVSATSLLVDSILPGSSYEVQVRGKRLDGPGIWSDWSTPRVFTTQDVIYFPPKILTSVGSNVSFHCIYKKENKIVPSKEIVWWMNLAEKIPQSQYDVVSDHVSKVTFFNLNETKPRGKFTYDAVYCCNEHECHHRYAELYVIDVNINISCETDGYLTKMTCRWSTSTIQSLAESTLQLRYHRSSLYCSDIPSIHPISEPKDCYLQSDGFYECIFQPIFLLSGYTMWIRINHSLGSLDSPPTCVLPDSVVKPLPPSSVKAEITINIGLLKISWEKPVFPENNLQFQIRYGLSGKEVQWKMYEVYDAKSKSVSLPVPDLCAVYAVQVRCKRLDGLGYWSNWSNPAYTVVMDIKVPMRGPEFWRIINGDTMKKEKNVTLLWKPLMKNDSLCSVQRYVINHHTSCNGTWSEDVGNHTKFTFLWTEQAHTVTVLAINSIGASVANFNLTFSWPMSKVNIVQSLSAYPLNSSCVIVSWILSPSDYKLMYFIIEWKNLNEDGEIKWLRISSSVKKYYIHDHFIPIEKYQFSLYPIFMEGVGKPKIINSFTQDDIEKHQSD
Description: A chimeric receptor cDNA was constructed by linking cDNA fragments encoding the extracellular domain (from the 1st to the 839th amino acid residues; Tartaglia, L A. et al. (1995) Cell, 83, 1263-1271) of human leptin receptor, and the transmembrane and intracellular domains (from the 602nd to the 813th amino acid residues; Fukunaga, R. et al. (1990) Cell 61, 341-350) of mouse G-CSF receptor. This cDNA was inserted downstream of the HEF1α promoter of the mammalian expression vector pCV to construct chimeric receptor expression vector pCV-cLepR. pCV-cLepR was linearized with Pvu I (Takara Shuzo), extracted with phenol and chloroform, and purified by ethanol precipitation. […]
as §1

erythropoietin [human EPO]
titer [1]: 270,000 IU/mg
concentration where the response was observed to start [2]: 2 pg/mL

human LIF: human leukemia inhibitory factor (Genzyme)
concentration at which an evident growth reaction was observed [3]: ≥ 0.4 ng/mL

human leptin: human leptin (Genzyme)
concentration at which an evident growth reaction was observed [4]: ≥ 0.2 ng/mL
